Source: US20160208003A1 (AFFITECH RESEARCH, published 2016)
Positions count from the first letter of the chain named. Blank lines part the entries; values can stand above or below the binder they belong to.

Legend:
[1] = molecular target: T1, monkey (Macaca mulatta) CCR4 (monkey (Macaca mulatta), UniProt F7GUA3 1-360); assay: flow cytometry, 10 µg/ml antibody on HEK-293T/17 cells transiently transfected with monkey CCR4, anti-human-IgG-PE
T1 construct: also called monkey CCR4
T1 sequence: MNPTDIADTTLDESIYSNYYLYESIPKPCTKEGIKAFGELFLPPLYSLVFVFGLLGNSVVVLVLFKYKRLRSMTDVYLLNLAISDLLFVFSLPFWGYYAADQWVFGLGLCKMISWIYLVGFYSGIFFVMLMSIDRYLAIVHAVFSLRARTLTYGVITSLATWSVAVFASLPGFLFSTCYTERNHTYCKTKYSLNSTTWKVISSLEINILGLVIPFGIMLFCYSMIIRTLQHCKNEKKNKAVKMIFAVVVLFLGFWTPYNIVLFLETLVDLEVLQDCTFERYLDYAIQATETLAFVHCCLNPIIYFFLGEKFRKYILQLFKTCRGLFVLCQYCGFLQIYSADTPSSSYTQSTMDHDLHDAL
Method: (§1) For transient transfection, Hek293T/17 cells were seeded as 2×10^6 cells in a T75 (NUNC) flask. 48 h after seeding, the cells were transfected with Fugene (ROCHE). 40 μl Fugene and 16 μg DNA are used per T75. The cells were used for assays 48 h after transfection.
(§2) HEK-293T/17 cells, were transiently transfected either with pcDNA3.1 plasmid encoding human CCR4 or with pLNO plasmids (Norderhaug et al, 1997) encoding either mouse (GeneBank CAA62372) or monkey (Macaca mulatta) CCR4 (PubMed access number XP_001098807) using Fugene (Roche) as a transfection reagent. Non-transfected (CCR4 negative) cells served as a negative control. The cells were cultivated further for 48 hours under regular conditions described above. The cells were washed twice with PBS, detached from the culture flasks by incubating with Accutase (PAA laboratories, Linz, Austria) for 3 minutes at room temperature. The cells were then washed 2 times with PBS (400×g, 5 min, 4° C.) and resuspended in PBS containing 0.2% BSA and 0.09% NaN₃. 1×10⁵ cells per well were aliquoted into V-shaped 96-well plates (Griner Bio-One, Frikenhausen, Germany). Cells were centrifuged (400×g, 5 min, 4° C.) and resuspended in 50 μl of 10 μg/ml 9E or 9E10J, in PBS containing 0.2% BSA and 0.09% NaN3. The cells were incubated further at 4° C. for 60 min. The samples were then washed twice by centrifugation and re-suspension in 100 μl FACS buffer. […]

[2] = molecular target: T2, human CC chemokine receptor 4 (CCR4) (human, UniProt P51679 1-360); assay: calculated from the IC50; CCRF-CEM cells, competitor 0.7 nM biotinylated IgG 9E
T2 construct: whole, on cells; Always presented on cells; also called CD194; human CCR4
T2 sequence (looked up): T1 sequence with I116M, I201L, F215L, D269E, F334L
Method: DT40 and CCRF-CEM cells were cultivated as described in Example 2. The cells were harvested from culture flasks, washed 2 times with PBS (400×g, 5 min, 4° C.) and resuspended in PBS containing 0.2% BSA and 0.09% NaN3. 1×10^5 cells per well were aliquoted into V-shaped 96-well plates (Griner Bio-One, Frikenhausen, Germany). Cells were centrifuged (400×g, 5 min, 4° C.) and resuspended in 50 μl IgG 9E10J or KM3060var (dilution series starting at 5 μg/ml) mixed with biotinylated competitor antibody 9E (0.1 or 0.5 μg/ml). The cells were incubated for 2 hours at 4° C., mixing with a pipette every 45 min. The cells were washed three times with 150 μl PBS with 0.2% BSA and 0.09% NaN3 and stained with 3 μg/ml streptavidin PE (BD Biosciences) for 45 minutes at 4° C. Cells were washed, resuspended in 200 μl PBS with 0.2% BSA and 0.09% NaN3, and transferred to a U-shaped 96 well Costar (Corning, Schiphol-Rijik, The Netherlands) plate for flow cytometry using an FACS Canto II flow cytometer (BD Biosciences, Heidelberg, Germany).

mouse CCR4 = molecular target: T3, mouse CCR4 (mouse, UniProt P51680 1-360); assay: flow cytometry on HEK-293T/17 cells transiently transfected with mouse CCR4, anti-human-IgG-PE detection
T3 construct: whole, on cells; also called murine CCR4
T3 sequence (looked up): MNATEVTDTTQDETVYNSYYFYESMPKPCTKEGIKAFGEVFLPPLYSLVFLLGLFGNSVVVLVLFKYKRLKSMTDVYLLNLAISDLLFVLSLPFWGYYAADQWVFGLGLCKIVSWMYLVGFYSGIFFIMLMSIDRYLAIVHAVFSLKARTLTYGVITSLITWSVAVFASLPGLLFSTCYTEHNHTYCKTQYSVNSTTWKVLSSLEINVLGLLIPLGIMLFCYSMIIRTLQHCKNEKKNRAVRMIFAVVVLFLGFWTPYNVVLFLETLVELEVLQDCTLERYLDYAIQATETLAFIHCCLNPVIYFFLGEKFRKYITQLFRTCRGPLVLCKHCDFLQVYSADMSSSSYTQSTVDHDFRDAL
Method: as §1, §2

[3] = molecular target: T2, human CC chemokine receptor 4 (CCR4); assay: cell-based or functional assay

- binding result [1]: binds
- Kd [2]: 0.06 nM
- binding result (mouse CCR4): no binding (tested: 10 µg/ml)
- ADCC of CCRF-CEM cells, EC50 (mean, N=5) [3]: 0.0247 µg/mL
B1: 9E10J IgG (full length human IgG1, lambda) (antibody, V domains shown)
VH: QVQLVQSGAEVKKPGSSVKVSCKASGGTFSSYAISWVRQAPGQGLEWMGGIIPIFGTANYAQKFQGRVTMTRDTSTSTVYMELSSLRSEDTAVYYCARRGGSYFDYWGQGTLVTVSS
VL: SYVLTQPPSASGTPGQSVTISCSGSTSNIGSHYVFWYQQLPGTAPRLLIYRNHQRPSGVPDRLSGSKSGTSASLAISGLRSEDEADYYCAVWDDTLSGWVFGGGTKLTVLG
notes: also called IgG 9E10J; unmodified 9E10J

- binding result [1]: binds
- Kd [2]: 0.33 nM
- binding result (mouse CCR4): no binding (tested: 10 µg/ml)
- ADCC of CCRF-CEM cells, EC50 (mean, N=2) [3]: 0.186 µg/mL
B2: 9E IgG (full length human IgG1, lambda) (antibody, V domains shown)
VH: B1 VH with S31N, M70I, R72A, T74E, V79A
VL: B1 VL
notes: also called IgG 9E; IgG1 9E
